From the supplement of paper PMC9876800

System: peptide library, one residue held at a place counted from the S/T acceptor
Assay: relative phosphorylation of the sub-library (ratio to the mean residue at this position); higher = residue favoured
Details: human
Outline: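 Purified recombinant kinases, either human or orthologue constructs, were incubated in 384-well plates with biotinylated degenerate peptide sub-libraries. Each sub-library fixed one residue at one position around a central Ser/Thr. Peptides at 50 μM and 50 μM ATP spiked with γ-32P-ATP were used for 90 min under kinase-specific conditions, and spots on streptavidin membranes were phosphorimaged and quantified by densitometry. Relative sub-library phosphorylation is expressed as a ratio to the mean residue at that position.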

Chain of MARK3, construct: Full length (P27448 whole entry, looked up): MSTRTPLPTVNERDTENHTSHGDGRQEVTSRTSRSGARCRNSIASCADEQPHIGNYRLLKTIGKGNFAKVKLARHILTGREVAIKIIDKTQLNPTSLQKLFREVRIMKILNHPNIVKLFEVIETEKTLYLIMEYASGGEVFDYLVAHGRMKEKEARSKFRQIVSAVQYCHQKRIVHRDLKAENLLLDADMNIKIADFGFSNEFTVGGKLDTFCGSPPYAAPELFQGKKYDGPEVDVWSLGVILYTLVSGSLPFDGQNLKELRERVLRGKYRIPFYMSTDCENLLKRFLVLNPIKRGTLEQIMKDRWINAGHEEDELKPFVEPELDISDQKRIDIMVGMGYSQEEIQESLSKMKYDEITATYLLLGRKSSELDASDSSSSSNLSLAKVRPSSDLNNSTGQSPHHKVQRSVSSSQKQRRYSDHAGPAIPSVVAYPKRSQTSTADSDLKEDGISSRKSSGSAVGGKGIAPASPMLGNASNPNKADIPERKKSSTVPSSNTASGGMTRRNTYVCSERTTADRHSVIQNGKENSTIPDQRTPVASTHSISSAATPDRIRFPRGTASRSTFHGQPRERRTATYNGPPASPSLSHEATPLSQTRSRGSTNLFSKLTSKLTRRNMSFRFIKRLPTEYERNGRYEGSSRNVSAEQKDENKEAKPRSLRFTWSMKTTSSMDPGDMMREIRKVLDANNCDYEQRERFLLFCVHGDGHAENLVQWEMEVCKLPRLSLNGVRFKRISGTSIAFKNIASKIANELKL
Chain of HIPK2, construct: aa153-564 (Q9H2X6 153-564, looked up): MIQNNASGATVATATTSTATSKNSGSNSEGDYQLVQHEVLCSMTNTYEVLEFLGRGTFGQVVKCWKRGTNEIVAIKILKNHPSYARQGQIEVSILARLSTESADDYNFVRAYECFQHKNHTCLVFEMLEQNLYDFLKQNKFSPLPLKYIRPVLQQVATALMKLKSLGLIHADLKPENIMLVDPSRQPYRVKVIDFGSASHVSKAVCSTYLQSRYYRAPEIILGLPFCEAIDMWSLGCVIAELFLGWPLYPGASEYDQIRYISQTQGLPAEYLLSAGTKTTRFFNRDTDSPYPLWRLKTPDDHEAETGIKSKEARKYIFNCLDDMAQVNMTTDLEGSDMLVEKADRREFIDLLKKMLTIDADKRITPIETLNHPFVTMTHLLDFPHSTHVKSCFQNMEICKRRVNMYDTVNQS
Chain of STK11, construct: Full length (Q15831 whole entry, looked up): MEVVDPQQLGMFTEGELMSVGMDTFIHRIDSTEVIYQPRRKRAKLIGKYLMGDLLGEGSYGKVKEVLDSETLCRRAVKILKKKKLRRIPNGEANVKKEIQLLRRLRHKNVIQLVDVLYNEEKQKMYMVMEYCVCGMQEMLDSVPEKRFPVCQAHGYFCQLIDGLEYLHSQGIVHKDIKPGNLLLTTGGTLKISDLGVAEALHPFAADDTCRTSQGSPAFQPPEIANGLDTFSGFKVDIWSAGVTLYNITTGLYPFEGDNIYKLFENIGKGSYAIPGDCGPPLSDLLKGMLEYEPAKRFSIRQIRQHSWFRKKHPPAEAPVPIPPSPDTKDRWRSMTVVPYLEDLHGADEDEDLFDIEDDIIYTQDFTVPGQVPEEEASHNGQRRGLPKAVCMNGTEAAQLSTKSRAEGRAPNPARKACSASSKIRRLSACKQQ

HIPK2, construct: aa153-564 (from UniProt Q9H2X6)
relative phosphorylation
Details | at +1 | at +2 | at +3 | at +4 | at -1 | at -2 | at -3 | at -4 | at -5
A fixed | 0.477 | 1.23 | 0.93 | 0.869 | 1.32 | 2.32 | 0.857 | 1.07 | 1.08
D fixed | 0.109 | 0.923 | 0.689 | 0.906 | 0.483 | 0.281 | 0.703 | 0.956 | 0.993
E fixed | 0.125 | 0.509 | 0.582 | 0.75 | 0.514 | 0.284 | 0.592 | 1 | 0.893
F fixed | 0.151 | 1.2 | 0.766 | 1.12 | 0.482 | 0.32 | 0.261 | 0.575 | 0.814
G fixed | 0.628 | 1.64 | 1.4 | 1.16 | 1.16 | 0.943 | 1.33 | 1.24 | 1.09
H fixed | 0.224 | 1.34 | 1.08 | 1.01 | 0.948 | 0.387 | 0.658 | 0.899 | 1.09
I fixed | 0.225 | 0.631 | 0.649 | 0.95 | 0.397 | 0.66 | 0.279 | 0.562 | 0.686
K fixed | 0.284 | 1.2 | 0.738 | 1.04 | 1.98 | 0.671 | 1.2 | 1.05 | 1.1
L fixed | 0.189 | 0.634 | 0.803 | 0.839 | 0.578 | 0.621 | 0.361 | 0.69 | 0.754
M fixed | 0.183 | 0.765 | 0.742 | 0.901 | 0.782 | 0.543 | 0.326 | 0.72 | 0.652
N fixed | 0.235 | 1.02 | 0.953 | 0.878 | 0.843 | 0.739 | 0.784 | 0.887 | 0.971
P fixed | 11.5 | 1.46 | 3.51 | 1.06 | 1.95 | 4.16 | 1.06 | 2.04 | 1.49
Q fixed | 0.251 | 0.766 | 0.971 | 1.11 | 1.35 | 0.569 | 0.821 | 0.977 | 0.993
R fixed | 1.6 | 1.22 | 0.914 | 0.993 | 2.33 | 2.9 | 6.74 | 2.38 | 1.72
V fixed | 0.481 | 0.722 | 0.677 | 1.01 | 0.65 | 0.949 | 0.34 | 0.574 | 0.716
W fixed | 0.161 | 0.951 | 0.852 | 1.3 | 0.624 | 0.304 | 0.348 | 0.655 | 0.782
Y fixed | 0.163 | 0.79 | 0.741 | 1.11 | 0.604 | 0.347 | 0.35 | 0.727 | 1.16
pThr fixed | 0.283 | 0.441 | 0.615 | 0.816 | 0.423 | 1.04 | 0.734 | 1.27 | 1.23
pTyr fixed | 0.251 | 0.431 | 0.989 | 1.15 | 0.614 | 0.375 | 0.628 | 1.01 | 1.19

MARK3, construct: Full length (from UniProt P27448)
relative phosphorylation
Details | at +1 | at +2 | at +3 | at +4 | at -1 | at -2 | at -3 | at -4 | at -5
A fixed | 0.634 | 0.761 | 0.599 | 0.335 | 1.09 | 2.23 | 0.806 | 1.19 | 1.16
D fixed | 0.414 | 0.68 | 2.56 | 0.456 | 0.61 | 0.317 | 0.412 | 0.765 | 0.758
E fixed | 0.82 | 0.902 | 0.95 | 0.319 | 0.605 | 0.263 | 0.458 | 0.703 | 0.72
F fixed | 0.651 | 0.746 | 0.792 | 0.619 | 0.499 | 1.29 | 0.758 | 0.987 | 1.12
G fixed | 0.542 | 0.47 | 0.559 | 0.385 | 2.52 | 1.37 | 0.687 | 1.32 | 1.03
H fixed | 0.76 | 0.879 | 1.56 | 0.489 | 0.708 | 1.21 | 1.41 | 1.19 | 0.86
I fixed | 1.14 | 0.863 | 0.486 | 2.82 | 0.441 | 0.444 | 0.497 | 0.565 | 0.817
K fixed | 0.932 | 0.651 | 0.731 | 0.487 | 1.92 | 0.995 | 2.2 | 1.71 | 1.4
L fixed | 1.25 | 1.16 | 0.782 | 5.82 | 0.654 | 0.392 | 0.6 | 0.642 | 1.49
M fixed | 2.38 | 0.994 | 0.708 | 1.22 | 0.75 | 0.571 | 0.772 | 0.833 | 1.06
N fixed | 1.26 | 0.998 | 3.05 | 0.526 | 1.06 | 0.583 | 0.682 | 0.916 | 0.627
P fixed | 0.337 | 0.826 | 0.2 | 0.348 | 1.37 | 0.546 | 0.925 | 1.13 | 0.964
Q fixed | 1.62 | 0.955 | 0.929 | 0.473 | 1.19 | 0.488 | 0.736 | 0.808 | 0.722
R fixed | 1.45 | 0.708 | 0.706 | 0.349 | 1.66 | 0.969 | 3.51 | 1.52 | 1.45
V fixed | 1.23 | 0.898 | 0.488 | 1.33 | 0.707 | 0.628 | 0.524 | 0.673 | 0.824
W fixed | 0.75 | 3.62 | 0.927 | 0.557 | 0.585 | 3.05 | 1.19 | 1.19 | 1.08
Y fixed | 0.831 | 0.888 | 0.969 | 0.461 | 0.633 | 1.65 | 0.83 | 0.856 | 0.915
pThr fixed | 1.49 | 1.34 | 0.404 | 0.369 | 0.348 | 0.44 | 0.553 | 0.726 | 0.573
pTyr fixed | 0.705 | 0.679 | 0.944 | 0.328 | 0.841 | 0.64 | 0.855 | 0.686 | 0.735

STK11, construct: Full length (from UniProt Q15831)
relative phosphorylation
Details | at +1 | at +2 | at +3 | at +4 | at -1 | at -2 | at -3 | at -4 | at -5
A fixed | 1.07 | 1.17 | 0.932 | 1.03 | 1.34 | 0.926 | 0.956 | 0.936 | 1.22
D fixed | 0.613 | 0.987 | 0.787 | 0.832 | 0.726 | 0.407 | 0.289 | 0.773 | 0.827
E fixed | 0.417 | 0.598 | 0.688 | 0.75 | 0.874 | 0.338 | 0.312 | 0.738 | 0.641
F fixed | 0.801 | 0.907 | 0.891 | 0.898 | 0.582 | 0.932 | 1.81 | 1.5 | 0.939
G fixed | 1.26 | 1.12 | 1.62 | 1.31 | 0.854 | 0.82 | 1.99 | 1.06 | 1.28
H fixed | 1.27 | 1.22 | 1.36 | 1.13 | 1.22 | 0.924 | 1.17 | 1.13 | 1.07
I fixed | 0.653 | 0.711 | 0.579 | 0.741 | 0.349 | 1.81 | 0.441 | 0.485 | 0.492
K fixed | 0.647 | 0.595 | 0.892 | 1.11 | 1.59 | 0.867 | 0.95 | 0.857 | 1.49
L fixed | 0.974 | 0.701 | 0.766 | 0.952 | 0.777 | 2.39 | 1.14 | 0.627 | 0.566
M fixed | 1.16 | 0.714 | 0.699 | 0.813 | 1.3 | 1.12 | 1.48 | 0.685 | 0.775
N fixed | 1.53 | 1.07 | 1.21 | 1.08 | 1.22 | 1.06 | 0.721 | 0.859 | 1.19
P fixed | 0.597 | 1.86 | 1.55 | 1.71 | 0.472 | 0.709 | 1.16 | 1.27 | 1.86
Q fixed | 1.57 | 0.922 | 1.14 | 1.17 | 1.62 | 0.836 | 0.728 | 0.799 | 0.901
R fixed | 1.34 | 0.692 | 1.02 | 0.953 | 1.84 | 1.19 | 0.765 | 0.828 | 1.27
V fixed | 0.654 | 0.882 | 0.7 | 0.724 | 0.495 | 1.06 | 0.385 | 0.498 | 0.532
W fixed | 1.36 | 1.66 | 1.15 | 1 | 0.848 | 0.712 | 1.29 | 2.99 | 1.17
Y fixed | 1.07 | 1.19 | 1.01 | 0.796 | 0.897 | 0.903 | 1.41 | 0.959 | 0.775
pThr fixed | 0.539 | 0.947 | 0.782 | 0.571 | 0.36 | 0.852 | 0.662 | 0.713 | 0.84
pTyr fixed | 0.43 | 0.743 | 0.736 | 0.581 | 0.559 | 0.553 | 0.746 | 0.632 | 0.897

EIF2AK2, construct: aa252-end (from UniProt P19525)
relative phosphorylation
Details | at +1 | at +2 | at +3 | at +4 | at -1 | at -2 | at -3 | at -4 | at -5
A fixed | 0.837 | 0.775 | 0.867 | 0.96 | 0.739 | 1.04 | 0.961 | 1.13 | 1.13
D fixed | 0.526 | 0.705 | 0.665 | 0.818 | 0.726 | 0.939 | 1.13 | 1.05 | 0.979
E fixed | 0.509 | 0.688 | 0.599 | 0.844 | 0.64 | 0.912 | 1.18 | 0.954 | 0.945
F fixed | 0.695 | 0.616 | 1.02 | 0.701 | 0.681 | 0.989 | 0.774 | 1.06 | 0.853
G fixed | 1.12 | 1.55 | 1.46 | 1.23 | 0.724 | 0.999 | 1.51 | 1.13 | 1.21
H fixed | 0.762 | 1.2 | 1.16 | 1.24 | 1.21 | 1.14 | 0.95 | 1.02 | 1.07
I fixed | 1.01 | 0.648 | 0.9 | 1.04 | 1.16 | 0.793 | 0.89 | 0.805 | 0.995
K fixed | 1.93 | 1.5 | 1.76 | 1.36 | 1.93 | 1.03 | 1.11 | 1.15 | 1.15
L fixed | 1.01 | 0.541 | 0.896 | 0.73 | 0.915 | 1.32 | 0.779 | 0.815 | 0.767
M fixed | 1.25 | 0.643 | 0.779 | 0.935 | 1.03 | 1.01 | 0.961 | 0.868 | 0.884
N fixed | 1.04 | 1.78 | 0.876 | 0.972 | 1.18 | 1.2 | 0.99 | 0.937 | 1
P fixed | 0.4 | 0.644 | 0.966 | 0.815 | 0.648 | 0.963 | 0.969 | 0.954 | 0.93
Q fixed | 1.22 | 0.845 | 0.925 | 0.811 | 0.95 | 1.02 | 0.855 | 0.92 | 0.855
R fixed | 2.57 | 2.68 | 1.7 | 1.75 | 1.97 | 1.09 | 1.5 | 1.21 | 1.41
V fixed | 0.897 | 0.708 | 0.798 | 0.812 | 1.07 | 0.863 | 0.819 | 0.875 | 0.824
W fixed | 0.637 | 0.715 | 0.863 | 1.06 | 0.64 | 0.87 | 0.804 | 1.24 | 0.947
Y fixed | 0.585 | 0.757 | 0.768 | 0.927 | 0.771 | 0.818 | 0.821 | 0.878 | 1.05
pThr fixed | 0.58 | 0.605 | 0.729 | 0.854 | 0.677 | 0.853 | 1.04 | 0.992 | 0.947
pTyr fixed | 0.489 | 0.897 | 0.717 | 0.853 | 0.629 | 0.933 | 0.955 | 0.735 | 0.968
